This is an account of results in patent publication US20210246195A1 (CZ BIOHUB SF, published 2021).

Substitutions are numbered along the chain they refer to. Read-outs that look alike come from different tables or passages of the source.

Assay [1] deals with T1, BSA (UniProt P02769 25-607).
T1 construct: also called bovine serum albumin; immobilized BSA
In words: indirect ELISA, OD heat map. A general note: In an ELISA, binding on a coated surface is turned into a signal by an enzyme label.

The target of assay [2] is T2, Ara h 3 (purified natural peanut allergen) (Arachis hypogaea).
T2 construct: mature; bought natural protein; also called natural Ara h 3; NA-AH3-1
Put plainly: BLI, antibody on anti-human IgG Fc sensors, Ara h 3 as analyte, top 16 nM.

Assay [3] has as its target T3, Ara h 1 (purified natural peanut allergen) (Arachis hypogaea, UniProt P43238 26-626).
T3 construct: mature; bought natural protein; also called natural Ara h 1; NA-AH1-1
T3 sequence (looked up): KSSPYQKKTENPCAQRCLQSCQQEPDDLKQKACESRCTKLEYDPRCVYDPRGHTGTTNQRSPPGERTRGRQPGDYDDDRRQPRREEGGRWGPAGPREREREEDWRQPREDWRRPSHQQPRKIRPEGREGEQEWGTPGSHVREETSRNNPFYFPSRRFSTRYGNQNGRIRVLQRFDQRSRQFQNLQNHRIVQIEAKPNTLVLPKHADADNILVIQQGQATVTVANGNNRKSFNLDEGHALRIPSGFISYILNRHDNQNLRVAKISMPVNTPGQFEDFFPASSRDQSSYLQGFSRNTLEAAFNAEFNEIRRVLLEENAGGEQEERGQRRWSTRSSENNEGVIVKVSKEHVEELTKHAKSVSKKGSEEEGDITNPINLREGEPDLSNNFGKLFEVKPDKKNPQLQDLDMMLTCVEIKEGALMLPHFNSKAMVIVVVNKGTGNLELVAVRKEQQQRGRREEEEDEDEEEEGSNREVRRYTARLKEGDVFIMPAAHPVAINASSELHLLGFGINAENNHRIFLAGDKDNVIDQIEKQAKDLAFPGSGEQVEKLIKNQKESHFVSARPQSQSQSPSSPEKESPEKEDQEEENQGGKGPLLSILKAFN
Put plainly: indirect ELISA, OD heat map.

Assay [4] addresses T2, Ara h 3 (purified natural peanut …). Put plainly: BLI, antibody on anti-human IgG Fc sensors, Ara h 3 as analyte, top 64 nM. For orientation: BLI is a label-free optical method that tracks binding on a fibre tip over time.
The target is the same in assay [5]. Put plainly: BLI, antibody on anti-human IgG Fc sensors, Ara h 3 as analyte, top 32 nM.
The target in assay [6] is T4, purified recombinant allergen Aspergillus fumigatus 1 (rAsp f 1) (Aspergillus fumigatus, UniProt P67875 28-176).
T4 sequence: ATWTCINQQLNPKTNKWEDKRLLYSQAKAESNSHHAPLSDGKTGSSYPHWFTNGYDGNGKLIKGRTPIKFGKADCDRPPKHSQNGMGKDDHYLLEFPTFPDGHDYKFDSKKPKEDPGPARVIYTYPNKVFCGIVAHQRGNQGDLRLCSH
Put plainly: indirect ELISA, OD heat map.

Assay [7] addresses T1, BSA. In words: indirect ELISA, OD heat map. The source holds these as a separate data set.
The target of assay [8] is T4, purified recombinant allergen …. In words: indirect ELISA (FIG. 19).
Assay [9] addresses T2, Ara h 3 (purified natural peanut …). Put plainly: BLI, scatter plot of KDs; the diamond lies on the axis line labelled >10^-7.
For assay [10] the target is unchanged. Put plainly: BLI, antibody on anti-human IgG Fc sensors, Ara h 3 as analyte, top 128 nM.
For assay [11], the target named is T3, Ara h 1 (purified natural peanut …). In words: indirect ELISA.
The target in assay [12] is T2, Ara h 3 (purified natural peanut …). Put plainly: BLI, antibody on anti-human IgG Fc sensors, Ara h 3 as analyte, top 512 nM.

T1 sequence (P02769 25-607 limits assumed): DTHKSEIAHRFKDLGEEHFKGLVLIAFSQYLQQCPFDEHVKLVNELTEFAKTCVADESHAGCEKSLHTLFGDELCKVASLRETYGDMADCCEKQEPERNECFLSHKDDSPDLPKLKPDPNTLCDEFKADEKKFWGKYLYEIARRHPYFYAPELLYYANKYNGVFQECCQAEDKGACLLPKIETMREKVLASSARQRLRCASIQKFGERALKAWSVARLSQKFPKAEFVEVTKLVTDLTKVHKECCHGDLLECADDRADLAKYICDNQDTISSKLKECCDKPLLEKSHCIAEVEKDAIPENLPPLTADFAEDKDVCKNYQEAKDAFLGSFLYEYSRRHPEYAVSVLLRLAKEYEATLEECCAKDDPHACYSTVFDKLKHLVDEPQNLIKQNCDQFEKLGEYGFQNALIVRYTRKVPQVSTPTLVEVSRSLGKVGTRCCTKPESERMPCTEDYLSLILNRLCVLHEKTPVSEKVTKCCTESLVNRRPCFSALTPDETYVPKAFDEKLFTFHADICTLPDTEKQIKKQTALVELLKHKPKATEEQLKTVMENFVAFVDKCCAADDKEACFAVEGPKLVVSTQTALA

B1: PA13P1H08 (antibody, human IgG1, V domains shown)
VH: QVQLVNSGGGVVQPGRSLRLSCVASGFTFSTFGIHWVRQAPGKGLEWVAVISNDGEKSESADSVKGRFTPSRDNSKNTVYLQMNNLRVEDTAVYYCAKVLDYSRYSYYYGMDVWGQGTTVIVSS
VL: EIVLTQSPGTLSLSPGGRGTLSCRTSQTINNAHLAWYQHKPGQAPRLLIYGSSERATGVPDRFSGSGSGSDFTLTISSLEAEDFAVYYCQHYGRSPPYTFGPGTKLDIK
notes: human IgG1, kappa; also called Clone PA13P1H08; N-N
One may read the Kd as the concentration at which binding is half-saturated. Consider B1, for which the binding result in the assay with BSA [1] is listed as “no binding (tested: 2 ng/µL)”. Moreover, binding in assay [2] was put at a Kd of 0.3 nM.

B2: PA13P1H08 variant with native heavy chain and light chain swapped with another kappa light chain (antibody, human IgG1, V domains shown)
VH: B1 VH
VL: EIVLTQSPATLSLSPGERATLSCRASQSVSSYLAWYQQKPGQAPRLLIYDASNRATGIPARFSGSGSGTDFTLTISSLEPEDFAVYYCQQRSNWPPGFTFGPGTKVDIK
notes: human IgG1, kappa
Take B2: the binding result (in [3]; in the assay with BSA [1]) was “no binding (tested: 2 ng/µL)” each time.

B3: PA13P1H08 variant N-R (antibody, V domains shown)
VH: B1 VH
VL: not shown
notes: human IgG1, kappa; also called native heavy chain, reverted light chain
As to B3, the binding result (in assay [3]; in the assay with BSA [1]) was “no binding (tested: 2 ng/µL)” in each case. The same molecule came in with a Kd in assay [4] of 7.4 nM.

B4: PA13P1H08 variant R-N (antibody, human IgG1, V domains shown)
VH: QVQLVESGGGVVQPGRSLRLSCAASGFTFSSYGMHWVRQAPGKGLEWVAVISYDGSNKYYADSVKGRFTISRDNSKNTLYLQMNSLRAEDTAVYYCAKVLDYSNYYYYYGMDVWGQGTTVTVSS
VL: B1 VL
notes: human IgG1, kappa; also called reverted heavy chain, native light chain
B4: the binding result with BSA [1] is listed as “no binding (tested: 2 ng/µL)”. In [5], this molecule registered a Kd of 0.89 nM.

B5: PA13P1H08 variant rFWRs-N (antibody, human IgG1, V domains shown)
VH: B4 VH with S31T, Y32F, Y53N, S56E, N57K, K58S, N104R, Y106S
VL: B1 VL
notes: human IgG1, kappa; also called heavy chain framework regions reverted
Regarding B5, the binding result with BSA [1] was “no binding (tested: 2 ng/µL)”. This molecule also gave a Kd in assay [5] of 3.2 nM.

B6: 1003320105_D6 (antibody, V domains shown)
VH: EVQLLESGGGLVQPGGSLRLSCAASGFNFSNFAVSWVRQTPGKGLEWVSAILGSRSVTYYADSVKGRFTISRDKSKNALYLQMDSLRAEDTAIYYCAKLFFMPYSHDDSGDYWGQGTLVAVSS
VL: QLVLTQSPSASASLGASVKLTCTLSSDHRSYAIAWHQQQPGKGPRYLMKVNRDGSHIKGDGIPHRFSGSSSVTERYLIISSLQSEDEADYYCQSWDTGIQVFGGGTRLTVV
notes: also called Clone 1003320105_D6
Regarding B6, the binding result (in assay [6]; with BSA [7]) was “no binding (tested: 2 ng/µL)” throughout.

B7: 1003320107_C5 (antibody, V domains shown)
VH: QVQLQESGLGLVKPSGTLSLTCAVSGGPMNSSYWWSWVRQSPGGGLEWIGQISHYTNTKYNPSFKNRVSISIDKSKNEFSLRLTYVTGADTGVYYCVGERDWKDPNWFDPWGQGRLVTVSS
VL: QSVLTQPPSVSGAPGQRVTISCTGSNSNIGAGQDVHWYQHFPGTAPKLVIYGNSNRPSGVPDRFSGSKSGTSASLAISGLQADDEADYYCQSYDKSLSSSLFGGGTKLTVL
notes: also called Clone 1003320107_C5
Take B7: the binding result in assay [8] was “binds”; with BSA [7], “no binding (tested: 2 ng/µL)”.

B8: PA13P1H08 variant R-R (antibody, V domains shown)
VH: B4 VH
VL: not shown
notes: human IgG1, kappa; also called both chains reverted to the inferred naive rearrangement
Regarding B8, the binding result (in assay [3]; with BSA [1]) was “no binding (tested: 2 ng/µL)” throughout. Moreover, the Kd in assay [9] and in assay [10] was greater than 100 nM each time.

B9: 1003320101_D6 (antibody, V domains shown)
VH: EVQLVASGGGLIHPGGSLRLSCEASGFSFSRFWMYWVRQSPGEGLVWVARLSGDGTVTNYADSMEGRVTISRDNVKNTLFLEMNSLREGDTGIYYCARKDCPSLSCQLDYWGQGVQVTVSS
VL: QSVLTQPPSVSAAPGQKVTISCSGSTSNIGKNYVSWYQHFPGAAPKLLIFDNDKRPSGIPDRFSGSRSGTSATLDITGLQTGDEADYFCATWDSRLSADVFGSGTTVSVL
notes: also called Clone 1003320101_D6
With B9, the binding result (in assay [6]; with BSA [7]) was “no binding (tested: 2 ng/µL)” in each case.

B10: 1003320107_F8 (antibody, V domains shown)
VH: EVQLVESGGGLVQPGGSLKLSCAASGFTFSGSTIHWVRQTSGKGLEWVGRIGSKATSYATAYAASVKGRFTISRDDSKNTAYLQMNSLKTEDTAVYFCTRRYYDTTKSVLVVSDSWGQGTLVTVSS
VL: SYELTQPPSMSVSPGQTARITCSGDVLAKQFAYWYQQKPGQAPVLVIYKDSERPSGIPERFSGSSSGTIITLTISGVQAEDEADYYCQSADSSGTSWVFGGGTKLTVL
notes: also called Clone 1003320107_F8
As to B10, the binding result (in assay [6]; with BSA [7]) was “no binding (tested: 2 ng/µL)” in each case.

B11: PA15P1D05 (antibody, human IgG1, V domains shown)
VH: QVHLVESGGGVVQPGRSLGLSCVASGFTFNYYAIHWVRQAPGKGLEWVAVVSFDGNIIYYADSVKGRFNISRDNSKNTVNLQMNSLRPDDTAVYYCVRDGEYCSGGNCYWGDFDHWGQGSLVTVSP
VL: EIVLTQSPATLSLSPGERATLSCRASQSISSEYLTWFQQKPGQAPRLLIYGAFNRATGIPDRFSGSGSGTDFTLTISSLEPEDFAVYYCQQYANWWTFGQGTKVEIK
notes: human IgG1; also called CF3 IgE PB antibody
Regarding B11, the binding result in [11] was “no binding”. In [12], this molecule displayed a Kd of 2 nM.

B12: PA15P1D12 (antibody, human IgG1, V domains shown)
VH: B11 VH with V23A, P88A, H115Y, S120T
VL: B11 VL with A9G
notes: human IgG1; also called CF3 IgG4 PB antibody
As to B12, the binding result in assay [11] was “no binding”. In assay [12], this molecule yielded a Kd of 1.1 nM.

B13: 1003320107_F3 (antibody, V domains shown)
VH: QVQLQESGPGLVKPSETLSLSCNVSGGSIRGHYWSWIRQSPGKRLEWLGYIYQSGYTKYNPSLKSRVSISLDTSKNKFSLNLKSVTTADTAVYYCAGRVAERGGDQFDFWGQGTLVTVSS
VL: SYELTQSPSLSVSPGQTASITCSGENLGEKHASWYQQKSGQSPVLVIYQDTKRPAGIPERFSGSNSGSTATLTISGTQPMDEADYFCQAWDANTANVIFGGGTMLTVL
notes: also called Clone 1003320107_F3
Turning to B13, the binding result in assay [8] was “binds”; with BSA [7], “no binding (tested: 2 ng/µL)”.
